Experimental data taken from PMC8654964, “Centrosome dysfunction associated with somatic expression of the synaptonemal complex protein TEX12” (Communications Biology, 2021).

B1: TEX12 (human, full length, amino acids 1-123) (natural protein, UniProt Q9BXU0 1-123, looked up)
chain: MMANHLVKPDNRNCKRPRELESPVPDSPQLSSLGKSDSSFSEISGLFYKDEALEKDLNDVSKEINLMLSTYAKLLSERAAVDASYIDEIDELFKEANAIENFLIQKREFLRQRFTVIANTLHR
notes: Human TEX12, synaptonemal complex central element protein, amino acids 1-123 (full length); Cloned into pMAT11 as a His6-MBP fusion with a TEV site; also called recombinant human TEX12; source: E. coli BL21(DE3), purified (Ni-NTA, amylose, TEV cleavage, anion exchange); not shown: His6, N-terminal, cleaved; MBP, N-terminal, cleaved
B2: TEX12core (human TEX12 amino acids 49-123) (domain or fragment, UniProt Q9BXU0 49-123, looked up)
chain: KDEALEKDLNDVSKEINLMLSTYAKLLSERAAVDASYIDEIDELFKEANAIENFLIQKREFLRQRFTVIANTLHR
notes: Human TEX12, alpha-helical structural core, amino acids 49-123; Cloned into pMAT11 as a His6-MBP fusion with a TEV site; also called structural core (49-123); source: E. coli BL21(DE3), purified (Ni-NTA, amylose, TEV cleavage, anion exchange); not shown: His6, N-terminal, cleaved; MBP, N-terminal, cleaved

Target: the molecule itself
Assay: SEC-MALS; Superdex 200 Increase 10/300 GL, 20 mM Tris pH 8.0, 150 mM KCl, 2 mM DTT, 0.5 ml/min; TEX12 loaded at 12 mg/ml, TEX12core at 4 mg/ml; self-association (homodimer)

Protein	stoichiometry N
B1	2
B2	2
